B1: C9orf25 (parent)
chain: LARKGSLKNGSMGSPVNQQPKKNN

Variants of: B1
Assay: protein stability index of a GFP-peptide fusion (GPS, HEK-293T) (PSI 1-6); higher = more stable
Details: c terminus: a fixed tail appended
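Also: lentivirally expressed fusions sorted by FACS into six bins by GFP to DsRed ratio, PSI derived from sequencing read proportions per bin multiplied by bin number.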

Protein stability index, by site and new letter:
G13: Q 4.99; P 4.33; N 4.97; K 4.28; M 4.44; L 4.92; C 5.04; F 4.06; E 5.23; H 4.58; D 4.64; R 4.36; A 4.79; I 4.72
M12: R 4.7; C 4.58; T 4.74; A 4.42; Q 4.4; L 4.44; N 4.43; S 4.94; F 4.56; W 4.11; E 5.29; I 4.42; D 5.06; K 5.15; P 4.84; Y 4.4; V 4.98; H 4.42; G 4.49
K8: E 4.29; G 5; Y 4.11; N 5.17; V 4.43; R 4.57; H 4.7; L 4.12; D 4.2; F 4.42; P 4.71; I 4.76; S 4.73; C 4.32; A 4.55; W 4.1; T 4.53; Q 4.84; M 4.45
K4: Y 4.13
G10: R 4.12; V 4; N 4.99; W 3.89; A 4.83; M 4.85; L 4.65; Q 4.34; I 4.76; K 4.35; C 4.33; H 4.67; P 4.86; D 4.61; Y 4.35; F 4.25; T 4.81; E 5.04; S 4.14
L7: Q 5.04; G 4.57; P 4.71; V 3.39; S 4.83; H 4.76; R 4.14; E 3.63; D 4.01; N 4.55; Y 4.17; A 4.51; M 4.66; W 3.97; C 5.02; K 5.32; F 4.2; I 4.56; T 4.71
G5: L 3.55; P 4.48; F 4; W 4.06; C 4.29; T 4.53; K 5.05; R 4.34; E 4.82; Q 4.6; S 4.8; H 4.49; A 4.5; M 4.06; D 4.58; N 4.07; I 3.99; Y 3.27; V 4.26
N9: S 4.94; I 4.64; A 4.6; E 5.29; Y 4.64; L 3.67; T 4.78; M 4.18; R 4.43; H 4.63; V 4.42; K 4.17; W 3.21; C 4.46; D 5.27; Q 4.92; F 4.21; G 4.74; P 4.36
S6: V 4.29; W 4.23; I 4.72; A 4.33; N 4.69; K 4.37; E 5.15; H 4.43; T 4.76; D 5.1; C 4.05; R 3.99; F 4.36; M 4.38; L 4.12; G 4.64; Q 4.76; P 4.59; Y 4.89
S11: V 4.71; P 4.67; L 4.19; N 4.88; T 4.81; W 4.45; K 4.7; M 4.22; I 4.41; R 4.61; D 4.8; C 4.5; G 5.27; Q 4.29; F 4.15; A 4.44; Y 4.35; H 4.15; E 4.96
